Assay: soluble on expression in E. coli; label from the status in PepcDB or PDB records

| Sequence | soluble on expression in E. coli |
| --- | --- |
| MGSDKIHHHHHHMEKEIKNIIEMRHIVKDFNGFKANNDINLTLRKGEILALLGENGAGKSTLMSILSGLLEPTSGEIYVRGEKVNISGPNVATSLGIGMVHQHFMLAQAFTVLENIILGHETTKGLALDFKTAREKILALSKQYGLAIDPDAKISDITVAQQQRVEILKVLYRGADILIFDEPTAVLTPQEITEFIKIMKNLAKEGKSIILITHKLKEIKESADRVTVIRAGKSIQTVSVADANDEQLAEMMVGHHVNFKLDKAPLNLGKNILEVKDLHVNEDRGTDAVKGLSFNIRGGEILGLAGIDGNGQDELVEAITGLRHVEGGQVVINGQDLTNKPVRQITEAGVGHIPADRQKYGLILQLPLSENIASQTYYKEPYSKHGIMNEQTIREHARELIKKFDVRTTSEQLPASDLSGGNQQKAIIARELDRDADLIIAFQPTRGLDVGAIEYIHSQLLKQRDAGKAVLLVSYELDEILQLSDRIVVLHDGAESGEVKPDQTSETELGLLMTGKNTKKEAAAND | not soluble |
| MTAENLSLSPELLDAVRRISGTEHLLVALDFDGTLSPIVDRAEDARPLPRSAAALEALAQLPRTTTALISGRALDSLRLVASPPADTLLIGSHGAEVWLGEGSLGLELDEDQRLKLAAVREVLSEIVNIAPGTLLEDKPAGVVLHTRMADDDVADDAVEAAMRVLREHPGVYLKTGKRVLETSVVHASKGQAVEFLRQATGATAILFAGDDVTDEDALGRLMGDDVGIKVGLDFTQAQYRVEAPVHVAELLEALLRERRRVTTDA | soluble |
| MGHHHHHHSHSLHYIHPYQPNEYLKALVAVGEICQDYDSDKMFPAFGFGARIPPEYTVSHDFAINFNEDNPECAGIQGVVEAYQSCLPKLQLYGPTNIAPIIQKVAKSASEETNTKEASQYFILLILTDGVITDMADTREAIVHASHLPMSVIIVGVGNADFSDMQMLDGDDGILRSPKGEPVLRDIVQFVPFRNFKHASPAALAKSVLAEVPNQVVDYYNGKGIKPKCSSEMY | soluble |
| MNNDLAPHLDIALRHSPPGLAATPIPRVDICVGQGFTEKAPCLYRSMICFILQGSKRVAINDNLLSYDSEHYLISALDLPLIGQILDAEDGQPYVAVSLVLDPALLAVLAASMPAVREREQKGIGITINPMSAPLRDTLLRLLSLLDTPDDIPILAPMVERELLYRLLQGPQGRLL | not soluble |
| GPGSMPATEMQSMEMDTVQSMYDSYELISVDPPTYSVLLTATADDPPELRVTIVYDSEGYPETAAPTVRLEHIAKHRRMQTAALAKEIEDLCAEQIGMHSVISVLQKAQEYLTDYAAMEEKAELQRRGDALTKAAASVSTAAPDPTVRIGTAVTRELFAEWSEKHIAEKLQKRVLSEKKSTKLTGRQLWDGTLKNADWDLFEALEDEQDVDLYTLANGEGEEADEVEYDLDDPAEEG | soluble |
| MAHHHHHHMGDHLGSRFTVIEQIGSGNYGSLYRVIDGEAATLADRIIATKKLQDTINHPHVLREVSAQRHAQKCSPHIVKLLHVVPRDRVRAALVLEYVPLDLRTFLNAFYCNQAKSSAPTWCATAGADELKSAAAPPCHIPLIYVRRMLRGLIEALHCLHARGIAHRDVKPENILVEPLGLGHPLRCVCPPMGSFGPAGEAAGCWVHAPHCPDPRQEERGVTRPMQPQGTLEPCQFFRRYSVALHHELTGDELASAIHRLHCETCRPCPCARAGAGKHAPQQHRDSSEMKTGNSCAQERQADAVDEESPANVDDGEADKLTAPMSPPLMPDVKLCDFGSARHIGTLRLRSAEEQREELTPGPTTPVYCAPEMMLLQRYGTSVDMWAVGAILFEMLTGEFFLGVGTLRSFSGDVVVRDDYCVMHRLNRMFRHLGTPSVEEWRCIAHPHYYPDEMLAHLPQVRDAALFRCLAQPIDTDGSFRRDSGDIKSNGDAKTADVQTDLNVRPSAGTCSCAQAPVNGTTDSHAARASAPPRDATAARHPLNVSDFLYQHIGESGVDFLRSLLRYDPAKRMTSAEALRHPFLSPEVANM | not soluble |
| MEKPHVVSLIGGFGYREPIFRKVLTTAMLDPGINYTLISGPSLDPSKLGGVPKNVRILNFVEDTYPYIKSSDAVIAPGGHSTIMEALSFGVPILSFPDEGHSEQESNAAVVEEEGYGRMLSYSTPPEVILECIREVIEDEAYRNKVERLQRLSGELEHHHHHH | not soluble |
| MSDRKAVIKNADMSEDMQQDAVDCATQAMEKYNIEKDIAAYIKKEFDKKYNPTWHCIVGRSGNFGSYVTHETKHFIYFYLGQVAILLFKSG | soluble |
| MDISVIDATKVNTETGLHIGESNAPVKMIEFINVRCPYCRKWFEESEELLAQSVKSGKVERIIKLFDKEKESLQRGNVMHHYIDYSAPEQALSALHKMFATQDEWGNLTLEEVATYAEKNLGLKEQKDATLVSAVIAEANAAHIQFVPTIIIGEYIFDESVTEEELRGYIEK | soluble |
| MNCMWCDSTEAKESLNTVYWELPDGTKAIEIQETPCISCSSCGMDYQSDHTVKEIEDQLFLIYTKDLPKQLTYEELMGRPRLLKRNYFDF | not soluble |
| MIPDDEFIKNPSVPGPTAMEVRCLIMCLAEPGKNDVAVDVGCGTGGVTLELAGRVRRVYAIDRNPEAISTTEMNLQRHGLGDNVTLMEGDAPEALCKIPDIDIAVVGGSGGELQEILRIIKDKLKPGGRIIVTAILLETKFEAMECLRDLGFDVNITELNIARGRALDRGTMMVSRNPVALIYTGVSHENKD | soluble |
| MGSDKIHHHHHHMALVKLQPGDITSDDPIPFPIYSADGKLLLQEGQSVTTSSLLDRLYDLGYRKSTEKVRSGPFNPVSHAPQVNTELLISSAHAHEKALPKPEAISGRSMNVLPTLKHRVEFFRLTPAGGSEAIHVDLVGVVHEKTIIVRSTGPDESVVLDPEHSYQAKLFTGSHLSTFSTRLTPDGVGPFGCYYLEYPDNLIHATVRKHRRVTTSFPAKLQSGEYQRASVDVTVSNISLIGAGVSSSVDFLTVGQSARLSMNLSVAQRVRPVEVYVEVRNRREKDGGFFYGLEFVRVSDEVRLEIKDFVLDSLATL | not soluble |
| MAHHHHHHMKCVLVVHSGGERMQRSCDLPDGVSTQEQLRAFVRSQDLRLESLDFTFAASLVRLTAGAAEKKGEKVVLREDADVQQLLKTAKQQRATHVLTFEVTISMSSSSPRNLGSFLSAEYAVDKDLVTLHVFAPLACPSRGKNPSYQEKMFIIPTRCVLESLARAVEDTLSIKLTNSGMKLVLYTMPQQPNGDQVEILYDTSALELLRQHTSQSTPGSTHLRHPYANPENYV | not soluble |
| MGSDKIHHHHHHMKVFDVHKFDMKKEQDFLQVQFNLKNRINLSPTIHPDSINTGAGVDLAYWEQDGEPYGVCCIIVIDADTKEVIEKVHSMGRISVPYVSGFLAFRELPLIIEAAKKLETEPDVFLFDGNGYLHYNHMGVATHAAFFLGKPTIGIAKTYLKIKGCDFVTPEIEVGAYTDIIIDGEVYGRALRTRRDVKPIFLSCGNYIDLDSSYQITMSLINQESRLPIPVRLADLETHVLRTFYQKNHV | not soluble |
| MIGKKILGERYVTVSEAAEIMYNRAQIGELSYEQGCALDYLQKFAKLDKEEAKKLVEELISLGIDEKTAVKIADILPEDLDDLRAIYYKRELPENAEEILEIVRKYI | soluble |
| MFGFPTATLLDCHGRYAQNVAFFNVMTEAHHKYDHSEATGSSSWDIQNSFRREKLEQKSPDSKTLQEDSPGVRQRVYECQECGKSFRQKGSLTLHERIHTGQKPFECTHCGKSFRAKGNLVTHQRIHTGEKPYQCKECGKSFSQRGSLAVHERLHTGQKPYECAICQRSFRNQSNLAVHRRVHSGEKPYRCDQCGKAFSQKGSLIVHIRVHTGLKPYACTQCRKSFHTRGNCILHGKIHTGETPYLCGQCGKSFTQRGSLAVHQRSCSQRLTL | soluble |
| MGSDKIHHHHHHMNRYLIIARVGDNSLHPTWINSEKRNFDLFISYFGNEEKKYSEHADYYEHMKGGKWPIISRLIDKNWEIISKYDAVWFPDDDLLVDTNSICKMFDLFSAFDLSLAQPALSMDSYFSHPCLLQQKKSIIRFTNFVEVMAPIFSLSSLERVKHTFSQSKSGWGLDFLWPHMINGKIGIIDVTPVIHTRPIGGELYKLNPELSPKMDIVKLQEIYPDIILNKKYKKNKFKVFSQILETRTLNEKMAYFKGKVQVALAKKVSKETKKYGA | not soluble |
| MVEFVNDPNFKDLVVDTTIDNRNDEEPMTIRNFTELMIQFYKLGWMRGSGGAMGCISGSELMISPSALQKERIREQDVFVYNMKDKTEVQRPPNKRITVSSCSVLFSLIMKETGSECVIHTHSKCANLITQLIKSNVFEISHQEYIKGIYDPFSGKALKYSDTLTIPIIDNMPSESQLLVCAINRSPMQPDCFINIALFQEPIRGVLENYPQAIAVLVRNHGLFVWGPTWESTKIMTECIDYLLELSIEMLKNNIPLVNEEAFEKEDNLSDKMRTLMFGDMAPV | not soluble |
| AIAPTELSRTEKKSLIWLFKEHGLRVDGRSALRSRSVSVAVDVLPSTAGSSRVFVGRTNDVLVGINLELRQYNLPAHAEDDAKRGSIAFSVEFCGVASPEFQGRSTEVLEAELVSFLDTAYAASPEFLADLFCREQRLASDPGTLRVCCWDVYVDVLVLGASGGNILDAVTYAVRAALATTVVPSVYWQDSESGGSWELDDRAEYCALLNASNAPLSASGAFIPPLVRDSRTEHDQVTLVAPRWFIIDPCAEEETLAGCFLSVASDSAQHLRAIWKRGSLPVEPDVVLDAAQQCIRDSAYACQEMDHFISELVATEESESVDDVPG | soluble |
| MVKPKYSRVLIKLSGEALAGEKGVGIDIPTVQTIAQEIKEVHDSGIEIALVIGGGNLWRGEPASKAGMDRVQADYTGMLGTVMNALVMADALQHAGVDTRVQTAIAMQQVAEPYIRGRALRHLQKGRIVIFAAGVGSPYFSTDTTSALRAAEIEADAILMAKNGVDGVYNDDPRKNADAIKFNELTHMEVLKRGLKIMDSTASSLSMDNDIDLVVFNLNESGNIKRVIFGEQIGTTVTSRISDSEMAGDPLEHHHHHH | soluble |
| IGDFEYYIDGMLTFNTNKITEMDELTPDYAYQARTGNRIDQSQLLIWKQWASNPDLIPESYEDAVANPQKYPWNAAGKYKLGNAVFQDTNGDRKIDSYDKVPTGYTNIPELIPTIRLGFSWKGFDARAVLTAYLNRTVPCRENMDYGFGWGGTSTHEITNTWGYYTDDPTDPRNINAKYPRLSTSFSDLDRNYPYNESTIWVVNGDFLSLRNVEVGYSLPARLISKVNMTKCRLYFSGYNLCNWSHLPKGFDPENPTNYIWAYPKTRSFTFGVNIGF | not soluble |
| AHHHHHHGSVIEEEGKVEILPRDVDLSKYVDSVEVDVDNFGDYHELRKELREKKMRFIDANVFIYAILKPKRELNEKELKIKRVSKEIFNRINGGEEVVTTVVHLSEVANVLEDAANLSFAISFLKDVLIKGNVIVEEVSDRDYMESVLLAEEKGVSINDALAYILMKRKGIEEIYTFDRHFENLDVRIVNS | soluble |
| MSKLLLKTPCTTWTFDSLMACVFGIKVSDVKVYFDILKNGPSKINDIAERINRDRSTVQRAVQNLMNAGLVKRKQVNIKDGGYYYVYEAIPFEETKKIIKKTMEEWCNNMKKWVEELEFEDVVKEYLENIEE | not soluble |
| MSLSNYSTGELAKLCNVTTRTIQYYDRKGILKPQGFTEGKRRVYTEQQRQTLELILLLKDLGCALSDIDMLLKGEGTLKTLNTLLTMKQQEINQQVKQQQAVLNKIKNVQYYVNEASTSPITHLKDIEHVMSKSAEGHHHHHH | soluble |
| MNRILIVEDEKNLARFIELELQHENYETAVANDGRAGLELALNEEWDAILLDLMLPHLNGVEVCRRVRQVKQTPIIMITARDSVIDRVSGLDHGADDYIVKPFAIEELLARLRSLLRRVENAEQSAKQTTLQYRNLIVEKENRIVKRDEEIIDLTKREYELLLTLMENVNIVLTREVLLNKVWGYETEVETNVVDVYVRYLRNKIDHPDEESYIQTVRGTGYVMRT | not soluble |

— the DeepSol protein solubility set
